{
  "source": "patent US6307020A",
  "about": "“Intracellular antifreeze polypeptides and nucleic acids” (HSC Research and Development Ltd. Partnership, priority 1998, dated 2001)",
  "key": {"[1]": {"assay": "Circular dichroism and thermal denaturation of liver and skin AFPs", "type": "physicochemical", "conditions": "for Tm (temperature at which fraction helix is 0.5): thermal denaturation 0-60° C., CD", "method": "CD spectra were measured using a Jasco J-600 spectropolarimeter. A water-jacketed (0.1 cm) quartz cell was used. Concentrations of peptides were calculated from UV-absorbance at 230 nm (OD230 =6.1 mM/L peptide-bonds). The concentrations of peptides for CD measurement were between 0.1-0.2 mg/ml in 0.1M NH4 HCO3, pH 8.5. Thermal denaturation of the peptides were measured by varying temperatures from 0-60° C. with a 5° C. step gradient. After CD measurement at 60° C., the samples were cooled to 0° C. and the extent of refolding was determined. The mean residue ellipticity at a given wavelength [q]1 was expressed in degree cm^2 dmol^-1. Fraction helix was calculated as described by Greenfield and Fasman (1969) Biochemistry 8, 4108-4116, employing 222 nm instead of 208 nm: [formula]\nThe ellipticity [q]222^coil of each peptide in 6.0 M guanidine hydrochloride at 25° C. was assumed to represent 0% helix formation, and the ellipticity for [q]222^helix 100% helix formation was calculated from J. T. Yang et al. (1986) Methods in Enzymology 130, 208-269: [q]^n= [q]^.infin. (1-k/n); where n is the chain length and k is a wavelength-dependent factor (at 222 nm k=2.5 and [q].infin.=-37,400 degree cm^2 dmol^-1)."}, "[2]": {"assay": "Antifreeze activity measured as thermal hysteresis with a Clifton Nanoliter Osmometer", "type": "physicochemical", "method": "The preferred method of measuring the activity of a skin type AFP is to measure the thermal hysteresis (the difference between the melting and freezing temperatures) of an aqueous solution containing the AFP. This can be done by performing a serial dilution of the AFP-containing aqueous solution, followed by cooling the solution gradually and monitoring the freezing point of the solution. Typically, this is performed using commercially available equipment designed specifically for this purpose, such as nanoliter osmoineter. See, Kao et al. (1986) Can. J. Zool. 64:578-582. A preferred osmometer is the Clifton Nanoliter Osmoineter (Clifton Technical Physics, Hartford, N.Y.). Instructions for using the equipment to perform thermal hysteresis are available from the manufacturer. […]\nThe activity of a skin-type AFP can be measured using a nanoliter osmometer. Antifreeze activity was measured as thermal hysteresis (the difference between the melting and freezing temperatures), essentially following the procedure of Chakrabartty et al. (1989) J. Biol. Chem. 264: 11313-11316. Proteins were dissolved in 0.1 M NH4 HCO3 and their concentrations were determined by duplicate amino acid analyses. […]\nAntifreeze activity was measured as thermal hysteresis (difference between the melting and freezing temperatures) essentially following the procedure of Chakrabartty et al. (1989) J. Biol. Chem. 264, 11307-11312. […]"}},
  "data": [
    {"substance": "sAFP2: skin-type AFP from winter flounder, MDAPAKAAAA TAAAAKAAAEA TAAAAAKAAAA TKAGAAR, SEQ ID NO: 18; identical to protein encoded by F2 (MDAPAKAAAATAAAAKAAAEATAAAAAKAAAATKAGAAR)", "values": [
      {"measurement": "Fraction Helix", "setting": "[1]; 0° C., pH 8.5, 0.1M NH4HCO3, calculated from ellipticity at 222 nm", "value": 0.61},
      {"measurement": "helical content by circular dichroism", "setting": "[1]; at 0° C.", "value": 61, "unit": "%"},
      {"measurement": "[Θ]222 mean residue ellipticity", "setting": "[1]; measured at 0° C., pH 8.5, 0.1M NH4HCO3", "value": "-21,677 deg cm^2 dmol^-1"},
      {"measurement": "Tm (temperature at which fraction helix is 0.5)", "setting": "[1]", "value": 12, "unit": "°C"},
      {"measurement": "Tm (temperature at which fraction helix is 0.5)", "setting": "[1]; listed as SAFP2", "value": 12.0, "unit": "°C"},
      {"measurement": "antifreeze activity (thermal hysteresis) compared with serum AFP HPLC-6", "setting": "[2]; dilutions 0.1 to 7.0 mM in 0.1 M NH4HCO3, FIG. 3", "value": "less than half of that observed for HPLC-6"},
      {"measurement": "antifreeze activity of GST-sAFP2 fusion protein compared with sAFP2", "setting": "[2]; nanoliter osmometer, 0.1 M NH4HCO3", "value": "indistinguishable"}
    ]}
  ]
}
